Experimental data from paper PMC12493207, “Annexin A2 interferes with complement regulation within the glomerulus” (The Journal of Biological Chemistry, 2025).

Biological target: T1, recombinant murine Factor H (murine, UniProt P06909 19-1234)
T1 construct: murine complement Factor H, residues 19-1234 of UniProt P06909; also called FH; source: CHO cells, transfected, purified from the supernatant (HiTrap His column)
Test: ELISA; Figure 1A-B: by the legend varying concentrations of Factor H immobilised on the plate, a fixed concentration of rA2 or of an annexin A2 fragment added, bound annexin A2 detected with an antibody (the methods tell the reverse: 800 ng rA2 adsorbed, Factor H 20 μg/ml in TBS with 2 mM Ca, 3 h, room temperature)
Conditions: both partners purified

T1 sequence (P06909 19-1234): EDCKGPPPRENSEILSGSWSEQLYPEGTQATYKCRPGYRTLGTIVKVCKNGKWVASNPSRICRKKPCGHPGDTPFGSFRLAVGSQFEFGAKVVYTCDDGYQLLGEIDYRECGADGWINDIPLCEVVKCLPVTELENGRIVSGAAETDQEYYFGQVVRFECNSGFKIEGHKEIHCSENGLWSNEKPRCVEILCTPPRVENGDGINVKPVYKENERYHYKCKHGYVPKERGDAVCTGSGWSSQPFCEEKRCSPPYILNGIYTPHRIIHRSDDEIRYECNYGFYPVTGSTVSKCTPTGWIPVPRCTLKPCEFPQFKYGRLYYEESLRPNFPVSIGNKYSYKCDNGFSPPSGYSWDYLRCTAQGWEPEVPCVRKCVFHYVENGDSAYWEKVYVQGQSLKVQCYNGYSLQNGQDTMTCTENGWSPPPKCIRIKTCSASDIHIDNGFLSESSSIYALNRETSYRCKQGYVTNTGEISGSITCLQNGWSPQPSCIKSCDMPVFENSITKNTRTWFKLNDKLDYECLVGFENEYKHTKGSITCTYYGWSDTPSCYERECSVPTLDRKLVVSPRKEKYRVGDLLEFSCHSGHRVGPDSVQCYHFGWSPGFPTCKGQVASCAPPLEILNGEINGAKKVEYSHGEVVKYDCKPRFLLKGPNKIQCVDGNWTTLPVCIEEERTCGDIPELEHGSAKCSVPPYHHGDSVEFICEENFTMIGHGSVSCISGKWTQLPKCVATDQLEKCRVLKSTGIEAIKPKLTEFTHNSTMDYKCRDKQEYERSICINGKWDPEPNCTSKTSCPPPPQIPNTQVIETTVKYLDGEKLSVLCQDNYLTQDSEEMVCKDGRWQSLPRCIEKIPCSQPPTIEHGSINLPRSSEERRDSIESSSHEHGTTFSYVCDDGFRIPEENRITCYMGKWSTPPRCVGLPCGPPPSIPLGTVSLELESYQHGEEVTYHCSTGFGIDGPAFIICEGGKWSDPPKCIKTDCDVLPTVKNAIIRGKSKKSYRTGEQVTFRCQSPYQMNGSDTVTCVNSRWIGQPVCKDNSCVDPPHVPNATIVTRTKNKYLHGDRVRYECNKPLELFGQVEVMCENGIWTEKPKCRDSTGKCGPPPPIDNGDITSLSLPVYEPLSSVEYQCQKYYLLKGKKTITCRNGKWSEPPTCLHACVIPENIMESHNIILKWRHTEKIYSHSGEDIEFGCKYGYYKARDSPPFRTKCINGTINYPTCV

- binding result: binds
B1: recombinant annexin A2 (natural protein, mouse, UniProt P07356 1-339, looked up)
chain: MSTVHEILCKLSLEGDHSTPPSAYGSVKPYTNFDAERDALNIETAVKTKGVDEVTIVNILTNRSNVQRQDIAFAYQRRTKKELPSALKSALSGHLETVILGLLKTPAQYDASELKASMKGLGTDEDSLIEIICSRTNQELQEINRVYKEMYKTDLEKDIISDTSGDFRKLMVALAKGRRAEDGSVIDYELIDQDARELYDAGVKRKGTDVPKWISIMTERSVCHLQKVFERYKSYSPYDMLESIKKEVKGDLENAFLNLVQCIQNKPLYFADRLYDSMKGKGTRDKVLIRIMVSRSEVDMLKIRSEFKRKYGKSLYYYIQQDTKGDYQKALLYLCGGDD
notes: annexin A2, mouse; cDNA reverse transcribed from total mRNA of a C57BL/6 mouse kidney; also called rA2; AnxA2; source: CHO cells, transfected, purified from the supernatant (HiTrap His column)
